Laboratory results as given in US20250332297A1, “DLL3-SPECIFIC BINDING CONSTRUCTS AND THEIR USE IN RADIOTHERAPY” (MOLECULAR PARTNERS AG, priority 2024, published 2025).
Each block holds one molecule with its values, some of them ahead of it.

Columns and labels:
[1] = biological target: pig DLL3-ECD (recombinant extracellular domain of pig DLL3) (pig); experiment: SPR (ProteOn), biotinylated DARPin on chip, pig DLL3-ECD as analyte, 1:1 Langmuir fit
[2] = biological target: T1, Human DLL3-ECD (recombinant extracellular domain of human DLL3, Examples 11, 17 and 19) (human, UniProt Q9NYJ7 27-466, biotinylated at the Avi-tag where immobilised (Examples 11 and 19)); experiment: SPR (ProteOn), biotinylated DARPin on chip, human DLL3-ECD as analyte, 1:1 Langmuir fit
T1 construct: also called hDLL3-ECD; human ECD; not shown: Avi-tag and Fc knob into hole (order depends on the format)
T1 sequence: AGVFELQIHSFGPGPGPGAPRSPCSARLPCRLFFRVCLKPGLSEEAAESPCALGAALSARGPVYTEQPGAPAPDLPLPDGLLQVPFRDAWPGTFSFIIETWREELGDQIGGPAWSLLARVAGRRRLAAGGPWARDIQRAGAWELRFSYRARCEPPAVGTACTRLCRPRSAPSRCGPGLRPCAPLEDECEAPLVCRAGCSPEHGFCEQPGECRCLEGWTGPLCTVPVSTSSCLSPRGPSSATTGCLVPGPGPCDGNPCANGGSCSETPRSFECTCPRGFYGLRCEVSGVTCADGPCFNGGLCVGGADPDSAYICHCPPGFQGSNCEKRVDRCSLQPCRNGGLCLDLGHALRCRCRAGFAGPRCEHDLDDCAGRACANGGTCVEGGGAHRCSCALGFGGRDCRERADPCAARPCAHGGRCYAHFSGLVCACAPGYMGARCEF
Method: (§1) SPR multi-trace analyses were performed similarly as described in Examples 1 and 11. Here, the binding kinetics of immobilized DARPin proteins to the extracellular domain of DLL3 (DLL3-ECD) from human, cynomolgus monkey, mouse and pig were determined.
(§2) Streptavidin SAHC200M (Xantec) SPR chip was conditioned according to the manufacturer's protocol.

[3] = biological target: T2, Cyno DLL3-ECD (extracellular domain of cynomolgus macaque DLL3, residues 27 to 466, Avi-tag, 3C site, Fc knob … (cynomolgus macaque, UniProt A0A2K5WSR1 27-464, biotinylated at the Avi-tag (Example 11))); experiment: SPR (ProteOn), biotinylated DARPin on chip, cyno DLL3-ECD as analyte, 1:1 Langmuir fit
T2 construct: range 27-466; also called cyno ECD; cynomolgus monkey DLL3; not shown: Avi-tag, 3C protease recognition site and Fc knob into hole
T2 sequence: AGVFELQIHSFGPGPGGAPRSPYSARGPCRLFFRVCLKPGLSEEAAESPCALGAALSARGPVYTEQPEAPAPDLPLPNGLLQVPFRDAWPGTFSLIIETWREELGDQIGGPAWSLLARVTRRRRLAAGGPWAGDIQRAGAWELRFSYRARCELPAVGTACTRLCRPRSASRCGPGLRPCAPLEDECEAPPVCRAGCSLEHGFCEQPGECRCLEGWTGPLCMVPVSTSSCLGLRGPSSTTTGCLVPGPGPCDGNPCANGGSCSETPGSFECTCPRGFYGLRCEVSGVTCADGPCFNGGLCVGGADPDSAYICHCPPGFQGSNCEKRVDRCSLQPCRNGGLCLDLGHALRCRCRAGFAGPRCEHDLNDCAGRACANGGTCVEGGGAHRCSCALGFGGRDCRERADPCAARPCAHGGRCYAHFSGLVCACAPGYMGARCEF
Method: as §1, §2

[4] = biological target: T3, mouse DLL3-ECD (recombinant extracellular domain of mouse DLL3) (mouse, UniProt O88516 33-490); experiment: SPR (ProteOn), biotinylated DARPin on chip, mouse DLL3-ECD as analyte, 1:1 Langmuir fit
T3 construct: extracellular domain
T3 sequence (looked up): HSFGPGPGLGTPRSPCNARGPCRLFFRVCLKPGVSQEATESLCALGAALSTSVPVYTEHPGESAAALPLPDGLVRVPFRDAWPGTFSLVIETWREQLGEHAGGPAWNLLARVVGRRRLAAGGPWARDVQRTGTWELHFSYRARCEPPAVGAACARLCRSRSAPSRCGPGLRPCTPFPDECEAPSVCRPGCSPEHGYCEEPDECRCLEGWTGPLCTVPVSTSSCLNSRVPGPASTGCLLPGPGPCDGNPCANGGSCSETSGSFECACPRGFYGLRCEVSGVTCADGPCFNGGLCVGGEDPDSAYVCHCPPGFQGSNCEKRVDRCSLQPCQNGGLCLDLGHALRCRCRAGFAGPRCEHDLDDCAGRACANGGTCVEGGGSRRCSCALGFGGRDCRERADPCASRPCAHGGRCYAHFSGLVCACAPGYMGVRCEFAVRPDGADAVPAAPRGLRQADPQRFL
Method: as §1, §2

[5] = biological target: pig DLL3-ECD; experiment: SPR, immobilized DARPin, binding of pig DLL3-ECD (Example 17); conditions: immobilized biotinylated DARPin, DLL3-ECD as analyte, 1:1 Langmuir, Table 20
Method: (§3) Kinetic binding parameters and binding affinities of two domain (2D) ankyrin repeat protein MAM279 and single domain (1 D) ankyrin repeat protein MAM093 to DLL3 from different species were determined. The DLL3-specific ankyrin repeat domain of MAM093 is identical to the DLL3-specific ankyrin repeat domain comprised in MAM279.
(§4) SPR multi-trace analyses were performed similarly as described in Examples 1 and 11. Here, the binding kinetics of immobilized DARPin proteins to the extracellular domain of DLL3 (DLL3-ECD) from human, cynomolgus monkey, mouse and pig were determined. Various concentrations of recombinant DLL3-ECD starting from 500 nM were applied to immobilized biotinylated 2D DARPin (MAM279; SEQ ID NO: 11) or 1 D DARPin (MAM093; SEQ ID NO: 1) (both with a Glycine-Serine (GS) at the N-terminal end) for on-rate and off-rate measurements.
(§5) Streptavidin SAHC200M (Xantec) SPR chip was conditioned according to the manufacturer's protocol. Biotinylated DARPins were immobilized to a coating density of 27 resonance units (RU) for 1D DARPin and 25 RU for 2D DARPin. All analytes (3-fold dilution ranging from 500-6.17 nM) were injected in succession for 240 s and dissociation was recorded for 10800 s using a constant flow of 100 μl/min.

[6] = biological target: Cyno DLL3-ECD; experiment: SPR, immobilized DARPin, binding of cyno DLL3-ECD (Example 17); parameters: species or system cynomolgus monkey; conditions: immobilized biotinylated DARPin, DLL3-ECD as analyte, 1:1 Langmuir, Table 19
Method: as §3, §4, §5

[7] = biological target: T4, mouse DLL3-ECD (Mus musculus, UniProt O88516); experiment: SPR, immobilized DARPin, binding of mouse DLL3-ECD (Example 17); conditions: immobilized biotinylated DARPin, DLL3-ECD as analyte, 1:1 Langmuir, Table 20
T4 construct: the extracellular domain of DLL3 (DLL3-ECD) from human, cynomolgus monkey, mouse and pig
T4 sequence (O88516 33-490 limits assumed): T3 sequence (looked up)
Method: as §3, §4, §5

[8] = biological target: T5, Human DLL3-ECD (Homo sapiens, UniProt Q9NYJ7); experiment: SPR, immobilized DARPin, binding of human DLL3-ECD (Example 17); conditions: immobilized biotinylated DARPin, DLL3-ECD as analyte, 1:1 Langmuir, Table 19
T5 construct: the extracellular domain of DLL3 (DLL3-ECD) from human, cynomolgus monkey, mouse and pig
T5 sequence (Q9NYJ7 27-492 limits assumed): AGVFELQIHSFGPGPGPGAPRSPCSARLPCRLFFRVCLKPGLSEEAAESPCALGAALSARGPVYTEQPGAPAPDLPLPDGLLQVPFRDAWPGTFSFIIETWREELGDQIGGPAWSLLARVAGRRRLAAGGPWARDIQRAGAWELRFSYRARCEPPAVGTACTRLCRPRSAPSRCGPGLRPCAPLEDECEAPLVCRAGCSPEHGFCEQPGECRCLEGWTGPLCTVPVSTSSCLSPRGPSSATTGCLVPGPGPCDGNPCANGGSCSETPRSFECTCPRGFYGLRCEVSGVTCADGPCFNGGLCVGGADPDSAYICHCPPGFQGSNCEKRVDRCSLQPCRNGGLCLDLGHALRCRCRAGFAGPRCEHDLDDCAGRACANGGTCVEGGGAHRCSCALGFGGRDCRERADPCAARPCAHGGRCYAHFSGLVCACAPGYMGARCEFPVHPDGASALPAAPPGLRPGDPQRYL
Method: as §3, §4, §5

Kd [1]: 14.3 nM | koff [1]: 0.00033 s⁻¹ | kon [1]: 23100 M⁻¹ s⁻¹ | Kd [2]: 0.13 nM | koff [2]: 1.18e-05 s⁻¹ | kon [2]: 90700 M⁻¹ s⁻¹ | Kd [3]: 8.72 nM | koff [3]: 0.000825 s⁻¹ | kon [3]: 94700 M⁻¹ s⁻¹ | Kd [4]: 149 nM | koff [4]: 0.004 s⁻¹ | kon [4]: 26700 M⁻¹ s⁻¹
B1: Biotinylated 1D DARPin MAM093 (SEQ ID NO: 1) with a Glycine-Serine (GS) at the N-terminal end (designed binder)
chain: GSDLGKKLLAAAAQGQDDEVRELLKAGANVNAKDLFGYTPLHLAAWRGHLEIVEVLLKAGADVNAKDAAGETPLHLAAWFGHLEIVEVLLKAGADVNAQDLQGKTPADLAAKEGHEDIAEVLQKAA
modifications: biotinylated (site and any tag used not stated)
notes: also called Biotinylated DARPin MAM093

Kd [5]: 14.3 nM | Koff pig DLL3-ECD [5]: 0.00033 s⁻¹ | Kon pig DLL3-ECD [5]: 23100 M⁻¹ s⁻¹ | Kd [6]: 8.72 nM | Koff Cyno DLL3-ECD [6]: 0.000825 s⁻¹ | Kon Cyno DLL3-ECD [6]: 94700 M⁻¹ s⁻¹ | Kd [7]: 149 nM | Koff mouse DLL3-ECD [7]: 0.004 s⁻¹ | Kon mouse DLL3-ECD [7]: 26700 M⁻¹ s⁻¹ | Kd [8]: 0.13 nM | Koff Human DLL3-ECD [8]: 1.18e-05 s⁻¹ | Kon Human DLL3-ECD [8]: 90700 M⁻¹ s⁻¹
B2: MAM093: Ankyrin repeat domain specific for DLL3 (SEQ ID NO: 1); single domain (1D) DARPin (protein)
chain: DLGKKLLAAAAQGQDDEVRELLKAGANVNAKDLFGYTPLHLAAWRGHLEIVEVLLKAGADVNAKDAAGETPLHLAAWFGHLEIVEVLLKAGADVNAQDLQGKTPADLAAKEGHEDIAEVLQKAA
modifications: Ankyrin repeat domain specific for DLL3 (MAM093)
notes: single domain (1D) DARPin

Kd [1]: 17.3 nM | koff [1]: 0.000319 s⁻¹ | kon [1]: 18400 M⁻¹ s⁻¹ | Kd [2]: 0.127 nM | koff [2]: 1.31e-05 s⁻¹ | kon [2]: 102000 M⁻¹ s⁻¹ | Kd [3]: 8.88 nM | koff [3]: 0.000939 s⁻¹ | kon [3]: 106000 M⁻¹ s⁻¹ | Kd [4]: 83.9 nM | koff [4]: 0.00282 s⁻¹ | kon [4]: 33700 M⁻¹ s⁻¹
B3: Biotinylated 2D DARPin MAM279 (SEQ ID NO: 11) with a Glycine-Serine (GS) at the N-terminal end (designed binder)
chain: GSDLGKKLLEAARAGQDDEVRELLKAGADVNAKDYFSHTPLHLAARNGHLKIVEVLLKAGADVNAKDFAGKTPLHLAADAGHLEIVEVLLKAGADVNAQDIFGKTPADIAADAGHEDIAEVLQKAAGSPTPTPTTPTPTPTTPTPTPTGSDLGKKLLAAAAQGQDDEVRELLKAGANVNAKDLFGYTPLHLAAWRGHLEIVEVLLKAGADVNAKDAAGETPLHLAAWFGHLEIVEVLLKAGADVNAQDLQGKTPADLAAKEGHEDIAEVLQKAA
modifications: biotinylated (site and any tag used not stated)
notes: also called Biotinylated DARPin MAM279
